Results reported in publication PMC3039135.

B1: WO2/10D5_HCDR3 rFab (Fab, V domains shown)
VH: VTLKESGPGLLKPSQTLSLTCSFSGFSIRTSKVGVSWIRQPSGKGLEWLAHIYWDDDKRYNPSLESRLTISKDTSRDMVFMKITSVDTADTATYYCVRRPITPVLVDAMDYWGQGTTLTVSS
VL: DVLMTQTPLSLPVNLGEQASISCRSSQSIVHSNGHTYLEWYLQRPGQSPKLLIYQVSTRFSGVPDRFSGSGSGTDFTLRISRVEAEDLGVYYCFQASLVPLTFGAGTKLELK
B2: WO2/12A11_HCDR3 rFab (Fab, V domains shown)
VH: VTLKESGPGLLKPSQTLSLTCSFSGFSIRTSKVGVSWIRQPSGKGLEWLAHIYWDDDKRYNPSLESRLTISKDTSRDMVFMKITSVDTADTATYYCARRTTTADYFAYWGQGTTLTVSS
VL: DVLMTQTPLSLPVNLGEQASISCRSSQSIVHSNGHTYLEWYLQRPGQSPKLLIYQVSTRFSGVPDRFSGSGSGTDFTLRISRVEAEDLGVYYCFQASLVPLTFGAGTKLELK

Experiments:
Test in all cases: SPR
[1] = target: gWO2_VH/WO2_VL rFab (mouse | human)
[2] = target: 20.1_VH/WO2_VL rFab (mouse | human)
[3] = target: gWO2 rFab (mouse | human)
[4] = target: WO2 (Y58>A) mutant rFab (mouse | human)
[5] = target: WO2_VH/gWO2_VL rFab (mouse | human)
[6] = target: WO2_VH/20.1_VL rFab (mouse | human)
[7] = target: biotinylated Aβ1–42 high molecular weight (HMW) soluble oligomers (human)
[8] = target: biotinylated Aβ1–16 peptide (human)

Molecule | Kd [1] [nM] | koff [1] [s⁻¹] | kon [1] [M⁻¹ s⁻¹] | Kd [2] [nM] | koff [2] [s⁻¹] | kon [2] [M⁻¹ s⁻¹] | Kd [3] [nM] | Kd [4] [nM] | Kd [5] [nM] | koff [5] [s⁻¹] | kon [5] [M⁻¹ s⁻¹] | Kd [6] [nM] | koff [6] [s⁻¹] | kon [6] [M⁻¹ s⁻¹] | Kd [7] [nM] | koff [7] [s⁻¹] | Kd [8] [nM] | koff [8] [s⁻¹] | kon [7] [M⁻¹ s⁻¹] | kon [8] [M⁻¹ s⁻¹]
Aβ1–16-Im7 fusion protein (domain or fragment) | 79 | 0.026 | 330000 | 2.8 | 0.0015 | 540000 | 21300 | 4900 | 349 | 0.145 | 390000 | 41 | 0.0614 | 1.5e+06 | – | – | – | – | – | –
B1 | – | – | – | – | – | – | – | – | – | – | – | – | – | – | 89.2 | 0.00546 | 154 | 0.00974 | – | –
B2 | – | – | – | – | – | – | – | – | – | – | – | – | – | – | 135 | 0.0261 | 262 | 0.0449 | 133000 | 171000
